Measured values: patent US20030096349, “N4 virion single-stranded DNA dependent RNA polymerase” (The University of Chicago, published 2003)

Tests used:
[1] = molecular target: T1, mini-vRNAP, non-His-tagged (Bacteriophage N4, UniProt Q859P9 SEQ:2-1107); assay: pulldown; DNA-affinity column; elutes at lower temperature than SEQ 16; conditions: label: biotin
T1 chain: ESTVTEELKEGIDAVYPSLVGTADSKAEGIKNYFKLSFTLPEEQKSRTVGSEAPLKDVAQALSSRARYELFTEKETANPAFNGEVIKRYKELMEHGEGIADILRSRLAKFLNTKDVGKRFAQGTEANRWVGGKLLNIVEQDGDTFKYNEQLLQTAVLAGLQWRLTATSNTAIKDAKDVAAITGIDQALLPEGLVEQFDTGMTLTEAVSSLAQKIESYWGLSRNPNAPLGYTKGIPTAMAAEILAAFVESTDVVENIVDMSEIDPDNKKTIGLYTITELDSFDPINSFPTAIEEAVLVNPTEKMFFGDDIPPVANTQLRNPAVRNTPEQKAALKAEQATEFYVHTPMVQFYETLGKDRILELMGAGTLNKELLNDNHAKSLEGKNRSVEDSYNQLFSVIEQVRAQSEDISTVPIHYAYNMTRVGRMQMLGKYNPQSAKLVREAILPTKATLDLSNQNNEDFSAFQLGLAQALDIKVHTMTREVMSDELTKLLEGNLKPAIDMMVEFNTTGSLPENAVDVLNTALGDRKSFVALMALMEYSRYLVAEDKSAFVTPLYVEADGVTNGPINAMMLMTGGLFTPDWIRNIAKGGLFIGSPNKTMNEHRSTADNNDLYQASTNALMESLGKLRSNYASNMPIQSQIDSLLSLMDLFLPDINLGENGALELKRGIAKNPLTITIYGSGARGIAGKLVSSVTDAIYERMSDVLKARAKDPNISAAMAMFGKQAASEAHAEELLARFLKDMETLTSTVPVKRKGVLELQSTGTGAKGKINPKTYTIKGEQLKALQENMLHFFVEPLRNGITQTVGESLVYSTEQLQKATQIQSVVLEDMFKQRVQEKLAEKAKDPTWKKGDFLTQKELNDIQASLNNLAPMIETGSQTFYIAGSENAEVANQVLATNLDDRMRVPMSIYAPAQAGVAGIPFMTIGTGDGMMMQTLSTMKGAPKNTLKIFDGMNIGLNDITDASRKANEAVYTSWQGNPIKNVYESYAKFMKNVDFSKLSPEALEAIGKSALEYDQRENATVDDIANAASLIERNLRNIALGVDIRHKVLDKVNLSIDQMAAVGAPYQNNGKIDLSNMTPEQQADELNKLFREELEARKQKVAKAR
Description: (§1) This property was used for purification of non-his tagged mini-vRNAP (SEQ ID NO:4) on a DNA-affinity column. The column was prepared by adsorbing a 5′ biotinylated N4 promoter-containing DNA oligonucleotide onto the matrix of a 1 ml HiTrap Streptavidin column (Pharmacia/Amersham Cat.#17-5112-01) according to the manufacturer's instructions. A debris-free sonicate of bacterial cells expressing mini-vRNAP was passed through the column. […] Nucleases in the extract are inhibited by addition of 2 mM EDTA. After washing the column, mini-vRNAP was eluted with warm (25° C.) water; the elution temperature was raised from 4° C. to 25° C. to increase mini-vRNAP recovery. For complete elution, the temperature can be raised up to 43° C. without significant change in the quality of the preparation. Elution under these conditions occurs due to the removal of metal ions and consequent melting of the promoter hairpin and dissociation of mini-vRNAP. Different DNA oligonucleotides containing variants of the P2 promoter (SEQ ID NOS:16-19), were used in DNA-affinity columns and tested in mini-vRNAP affinity purification. The best yield was achieved using the DNA oligonucleotide of SEQ ID NO:16. […]

[2] = molecular target: T2, mini-vRNAP (N4 virion RNA polymerase central domain) (Bacteriophage N4, UniProt Q859P9 SEQ:38-1143); assay: filter; no binding when loop cannot form; conditions: tags: N-terminal His6 (pBAD B), TALON and MonoQ
T2 chain: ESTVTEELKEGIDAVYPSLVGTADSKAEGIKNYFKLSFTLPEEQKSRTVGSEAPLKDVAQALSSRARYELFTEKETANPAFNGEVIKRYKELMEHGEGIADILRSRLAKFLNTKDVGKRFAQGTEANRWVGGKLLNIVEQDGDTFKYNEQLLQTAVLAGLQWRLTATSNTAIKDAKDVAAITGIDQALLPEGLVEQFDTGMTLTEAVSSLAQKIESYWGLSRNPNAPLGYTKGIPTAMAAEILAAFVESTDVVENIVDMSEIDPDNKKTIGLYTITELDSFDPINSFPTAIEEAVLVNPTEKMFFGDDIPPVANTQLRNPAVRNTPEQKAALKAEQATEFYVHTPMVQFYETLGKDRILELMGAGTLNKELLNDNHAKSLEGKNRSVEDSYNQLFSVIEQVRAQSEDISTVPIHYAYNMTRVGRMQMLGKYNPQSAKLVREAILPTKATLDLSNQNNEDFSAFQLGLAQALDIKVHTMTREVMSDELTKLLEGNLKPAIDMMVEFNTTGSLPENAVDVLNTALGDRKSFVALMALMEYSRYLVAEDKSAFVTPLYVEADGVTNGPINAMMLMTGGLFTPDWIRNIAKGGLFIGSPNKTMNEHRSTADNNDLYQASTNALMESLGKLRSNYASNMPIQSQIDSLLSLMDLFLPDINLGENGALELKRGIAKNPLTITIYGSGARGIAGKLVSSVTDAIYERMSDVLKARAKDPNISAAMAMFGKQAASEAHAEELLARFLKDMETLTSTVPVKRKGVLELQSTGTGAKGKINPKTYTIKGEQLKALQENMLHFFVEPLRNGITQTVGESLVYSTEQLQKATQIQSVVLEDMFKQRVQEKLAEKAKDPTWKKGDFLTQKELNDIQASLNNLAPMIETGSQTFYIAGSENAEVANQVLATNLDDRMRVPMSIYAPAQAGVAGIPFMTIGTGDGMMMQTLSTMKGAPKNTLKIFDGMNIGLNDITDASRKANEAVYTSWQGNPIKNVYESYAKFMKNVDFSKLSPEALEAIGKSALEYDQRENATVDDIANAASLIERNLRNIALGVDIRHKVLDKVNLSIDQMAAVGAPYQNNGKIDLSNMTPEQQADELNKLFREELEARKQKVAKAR
Description: (§2) The effect of changes in the stem length of the hairpin on the ability of mini-vRNAP to bind P2 promoter DNA was analyzed. […] The stem can be shortened by two base pairs without change in the binding affinity. […] No binding is observed if one more nucleotide is removed and the loop cannot form.

[3] = molecular target: T2, mini-vRNAP (N4 virion RNA polymerase …); assay: filter; wild type affinity; crosslinks; conditions: tags: N-terminal His6 (pBAD B); TALON and MonoQ; label: 32P; hairpin
Source text: To study the sequence determinants of promoter binding, 20 base-long promoter oligonucleotides, containing the wild type vRNAP promoter P2 sequence and substituted at every position with a single 5-Iodo-dU, were used. Whenever substitutions were made in the stem, the corresponding pairing base was changed to A. These oligonucleotides were ³²P end-labeled and used to determine the enzyme's affinity for promoter DNAs by a filter binding assay and the ability to crosslink to mini-vRNAP upon UV irradiation at 320 nm.

[4] = molecular target: T3, mini-vRNAP Y678F (Bacteriophage N4, UniProt Q859P9 SEQ:38-1143); assay: UV crosslinking as well as wild type enzyme; conditions: tags: N-terminal His6; label: 32P; hairpin
T3 chain: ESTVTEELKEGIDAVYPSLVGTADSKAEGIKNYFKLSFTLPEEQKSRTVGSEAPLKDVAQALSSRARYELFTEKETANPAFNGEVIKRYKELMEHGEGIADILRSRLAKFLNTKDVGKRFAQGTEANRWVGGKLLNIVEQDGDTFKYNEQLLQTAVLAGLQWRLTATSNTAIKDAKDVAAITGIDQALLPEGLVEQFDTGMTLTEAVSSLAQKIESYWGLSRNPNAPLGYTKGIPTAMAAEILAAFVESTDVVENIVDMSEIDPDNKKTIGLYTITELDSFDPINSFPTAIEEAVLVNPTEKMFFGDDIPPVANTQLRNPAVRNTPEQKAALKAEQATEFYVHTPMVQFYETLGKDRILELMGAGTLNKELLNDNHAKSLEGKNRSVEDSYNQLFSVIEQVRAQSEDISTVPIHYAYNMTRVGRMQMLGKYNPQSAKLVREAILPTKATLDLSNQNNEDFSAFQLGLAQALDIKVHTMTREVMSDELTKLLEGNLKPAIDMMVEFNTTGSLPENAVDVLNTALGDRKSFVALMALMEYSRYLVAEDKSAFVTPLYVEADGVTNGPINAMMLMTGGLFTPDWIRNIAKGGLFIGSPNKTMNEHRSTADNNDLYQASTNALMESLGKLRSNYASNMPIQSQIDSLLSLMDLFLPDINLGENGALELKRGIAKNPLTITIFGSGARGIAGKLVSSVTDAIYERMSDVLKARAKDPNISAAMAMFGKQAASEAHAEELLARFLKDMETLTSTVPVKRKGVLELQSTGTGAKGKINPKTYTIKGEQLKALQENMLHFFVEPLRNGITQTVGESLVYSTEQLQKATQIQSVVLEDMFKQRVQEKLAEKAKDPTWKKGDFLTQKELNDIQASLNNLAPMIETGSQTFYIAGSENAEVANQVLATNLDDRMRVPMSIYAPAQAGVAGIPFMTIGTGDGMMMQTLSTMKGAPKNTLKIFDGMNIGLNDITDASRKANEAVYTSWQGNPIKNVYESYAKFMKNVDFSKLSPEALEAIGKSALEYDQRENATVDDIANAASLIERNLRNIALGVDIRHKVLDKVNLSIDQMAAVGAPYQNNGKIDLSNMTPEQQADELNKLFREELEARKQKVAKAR

[5] = molecular target: T2, mini-vRNAP (N4 virion RNA polymerase …); assay: filter; stem shortened by two bp, affinity unchanged; conditions: tags: N-terminal His6 (pBAD B); TALON and MonoQ; hairpin, 3 bp stem
Description: as §2

[6] = molecular target: T1, mini-vRNAP, non-His-tagged; assay: pulldown; DNA-affinity column; lower yield than SEQ 16; conditions: label: biotin; hairpin
Description: as §1

[7] = molecular target: T2, mini-vRNAP (N4 virion RNA polymerase …); assay: filter; stem lengthened by two bp, affinity unchanged; conditions: tags: N-terminal His6 (pBAD B); TALON and MonoQ; hairpin, 7 bp stem
[8] = molecular target: T1, mini-vRNAP, non-His-tagged; assay: pulldown; DNA-affinity column, pH 5-9, 50 mM-2 M NaCl, 2 mM EDTA in extract; best yield; conditions: label: biotin; hairpin
Description: as §1

[9] = molecular target: T2, mini-vRNAP (N4 virion RNA polymerase …); assay: filter; range given for two or one remaining loop-closing bp; conditions: tags: N-terminal His6 (pBAD B), TALON and MonoQ, hairpin
Description: as §2

[10] = molecular target: T2, mini-vRNAP (N4 virion RNA polymerase …); assay: filter; two orders of magnitude reduction; conditions: tags: N-terminal His6 (pBAD B); TALON and MonoQ; hairpin, 8 bp stem

B1: P2 affinity oligo SEQ 20 (shortened stem) (ssDNA)
DNA: GGCATTACTTCATCCAAAAGAAGCGGAGC
modifications: 5' biotin
[1]
  binding result: binds

B2: P2 without stem (ssDNA)
DNA: TCCAAAAGAAGCGGA
[2]
  binding result: no binding

B3: P2 20-mer 5-iodo-dU at +3 (ssDNA)
DNA: TCCAAAAGAAGCGGAGCTTC
modifications: 5-iodo-dU at +3
[3]
  binding result: binds
[4]
  binding result: binds

B4: P2 stem shortened to 3 bp (ssDNA)
DNA: TCCAAAAGAAGCGGAGCT
[5]
  Kd: ~1 nM

B5: P2 20-mer 5-iodo-dU at +1 (ssDNA)
DNA: TCCAAAAGAAGCGGAGCTTC
modifications: 5-iodo-dU at +1
[3]
  binding result: binds

B6: P2 affinity oligo SEQ 18 (ssDNA)
DNA: GGATCCAAAAGAAGCGGAGCTTC
modifications: 5' biotin
[6]
  binding result: binds

B7: P2 stem lengthened to 7 bp (ssDNA)
DNA: TCCAAAAGAAGCGGAGCTTCTT
modifications: [none]
[7]
  Kd: ~1 nM

B8: P2 affinity oligo SEQ 16 (ssDNA)
DNA: GGCATTACTTCATCCAAAAGAAGCGGAGCTTC
modifications: 5' biotin
[8]
  binding result: binds

B9: P2 affinity oligo SEQ 19 (loop/stem variant) (ssDNA)
DNA: GGCATTACTTCATCCAAAAGAAGCTGAGCTTC
modifications: 5' biotin
[1]
  binding result: binds

B10: P2 stem shortened to 1 bp (ssDNA)
DNA: TCCAAAAGAAGCGGAG
[9]; 1 loop-closing bp
  Kd: 4.47 nM

B11: P2 stem shortened to 2 bp (ssDNA)
DNA: TCCAAAAGAAGCGGAGC
[9]; 2 bp stem
  Kd: 4.47 nM

B12: P2 affinity oligo SEQ 17 (ssDNA)
DNA: GGCCATCCATTACTTCATCCAAAAGAAGCGGAGCTTC
modifications: 5' biotin
[6]
  binding result: binds

B13: P2 20-mer 5-iodo-dU at +2 (ssDNA)
DNA: TCCAAAAGAAGCGGAGCTTC
modifications: 5-iodo-dU at +2
[3]
  binding result: binds

B14: P2 20-mer 5-iodo-dU at -11 (ssDNA)
DNA: TCCAAAAGAAGCGGAGCTTC
modifications: 5-iodo-dU at -11 (loop centre)
[4]
  binding result: binds

B15: P2 stem lengthened, base paired to -2 (ssDNA)
DNA: TCCAAAAGAAGCGGAGCTTCTTT
modifications: [none]
[10]
  binding signal: ~100 fold lower affinity
